# From paper PMC11169542, “A probe for NIR-II imaging and multimodal analysis of early Alzheimer’s disease by targeting CTGF” (Nature Communications, 2024)
# “Also recorded” adds a separate entry of the source. Ends that are not written are not given here.
# Tests used:
# CTGF [1] = assay: Chromogenic DAB oxidation in DGC-labelled cells; assay type: cell-based; conditions: 40 μM DGC 4 °C overnight + DAB, Image Pro Plus
# Experimental: To observe accurately the expression level of CTGF in cells with the naked eye, we optimized the conditions for labeling U87MG, SH-SY5Y, and CTX TNA2 cells stained with DGC. According to the study, the optimal incubation concentration of DGC (40 μM) was used to determine the optimal culture conditions using the DAB Horseradish Peroxidase Color Development Kit. After the cells were co-stained by DGC at 4 °C overnight, a DAB chromogenic agent was added to the cells. Since DGC can label CTGF proteins on the cells, when DAB chromogenic is added, DGC on the cells can catalyze DAB to produce an insoluble brown precipitate to attach to the cells.
# CTGF [2] = target: T1, CTGF (Mus musculus, UniProt P29268); assay: DAB chromogenic imaging of DGC-labelled mouse brain sections; set-up: species or system APP/PS1 and wild-type C57BL/6J mice; conditions: 200 μM DGC + DAB
# T1 construct: brain sections of the age-matched wild-type C57BL/6J mice were used as controls; from tissue; host or cells: brain of APP/PS1 transgenic and wild-type C57BL/6J mice (sections, living animal, perfused isolated brain)
# T1 sequence (P29268 26-348): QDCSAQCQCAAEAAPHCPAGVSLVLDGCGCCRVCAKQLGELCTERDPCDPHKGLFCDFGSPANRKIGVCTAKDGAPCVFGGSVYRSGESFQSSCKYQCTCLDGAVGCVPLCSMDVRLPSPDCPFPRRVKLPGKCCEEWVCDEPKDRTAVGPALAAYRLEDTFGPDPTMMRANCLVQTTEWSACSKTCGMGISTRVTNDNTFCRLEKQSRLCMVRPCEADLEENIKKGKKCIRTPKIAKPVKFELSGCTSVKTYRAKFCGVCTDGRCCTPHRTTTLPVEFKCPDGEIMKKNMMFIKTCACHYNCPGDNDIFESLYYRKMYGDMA
# Experimental: To observe the expression level of CTGF in the brain section with the naked eye, we optimized the conditions for labeling WT mice, 3-month-old APP/PS1 mice and 9-month-old APP/PS1 mice stained with DGC. According to the study, the optimal incubation concentration of DGC (200 μM) was used to determine the conditions using the DAB Horseradish Peroxidase Color Development Kit. After the brain sections were co-stained by DGC (200 μM) at 4 °C overnight, a DAB chromogenic agent was added to the brain sections. […] After the brown product was imaged by optical microscopy and analyzed by Image Pro Plus software.
# [3] = Biosafety: blood tests and organ pathological analysis (H&E staining); assay type: in vivo; conditions: C57BL/6J mice, 20 mg/kg DGC, vs untreated normal mice
# Source text: In order to clarify the NIR-II signal in AD brains when in vivo imaging is arisen from the DGC probe that bound to CTGF, we selected 3-month-old APP/PS1 mice representing early-stage AD and the age-matched WT mice as control to performed ex vivo multimodal analysis of the brain sections. […] To exclude the influence of vascular retention, we emptied the cerebral vessels by cardiac perfusion and performed ex vivo imaging of the brains. […] For brain sections made from AD mice after tail vein injection of DGC, the red fluorescence observation and LA-ICP-TOF-MS of DGC, as well as a POD-like catalysis test were performed. […] In Fig. 6c, the colocalization of DGC (red fluorescence) and CTGF (green fluorescence) on the ex vivo brain sections confirmed the specificity of DGC targeting CTGF in vivo. To further identify the cellular target of DGC in the brain of APP/PS1 mice, we carried out immunofluorescence staining on the ex vivo brain sections after tail vein injection of DGC where cell-specific fluorescent antibodies for microglia (Iba 1), neurons (NeuN), vascular endothelial cell (CD31) and reactive astrocytes (GFAP) were applied. […] The biosafety of DGC in C57BL/6J mice under the NIR-II imaging condition was evaluated by blood tests (blood cells and biochemical analysis) and organ pathological analysis (H&E staining).
# [4] = In vitro stability of DGC fluorescence on storage in PBS; assay type: physicochemical; conditions: two weeks storage in PBS
# Source text: In this manuscript, Lu et al. reported a novel gold cluster-based probe modified with peptides that specifically bind to connective tissue growth factor (CTGF). Owing to the elevated expression of CTGF is an upstream regulator of amyloid-beta (Aβ) plaque, the probe holds a promise for potential application in the early diagnosis of Alzheimer's disease (AD). The unique feature of this probe is their capacity to emit near-infrared (NIR) light, rendering them suitable for in vivo imaging. Moreover, their ability to […]
# The article is well-crafted, and the experiments convincingly highlight the distinctive properties of the newly developed probe. […]
# following concerns are addressed.
# Reviewer 1: How long can the fluorescence last in the cells and AD brain, or how stable is the fluorescence of the probe?
# Response: We monitored the fluorescence changes of DGC probes in vitro, in U87MG cells and in brain of APP/PS1 mice, respectively. […]
# cultured U87MG cells, DGC probe could be well internalized, and obvious […]
# medium for 72 h (Fig R5). In APP/PS1 mice, we detected temporal changes of luminescence from DGC in the brain by in vivo NIR-II imaging. […]
# Figure R6. […] Monitoring fluorescence intensity of DGC in brain of WT mice and 3-month-old APP/PS1 mice for 24 h (left). […]
substance,measurement,setting,value
"DGC: CTGF-targeting peptide-coated gold nanocluster: one Au26 gold nanocluster coated by eight DAG cyclic peptides, NIR-II and red fluorescence (CDAGRKQKC; also: cyclic peptide, ring not given here, eight peptides on one Au26 nanocluster via Cys Au-S bonds)",DAB chromogenic imaging intensity,"CTGF [1]; CTX TNA2 cells, replicate 1",0.0128
same,DAB chromogenic imaging intensity,"CTGF [1]; CTX TNA2 cells, replicate 2",0.01748
same,DAB chromogenic imaging intensity,"CTGF [1]; CTX TNA2 cells, replicate 3",0.0191
same,DAB chromogenic imaging intensity,"CTGF [1]; SH-SY5Y cells, replicate 1",0.04369
same,DAB chromogenic imaging intensity,"CTGF [1]; SH-SY5Y cells, replicate 2",0.03714
same,DAB chromogenic imaging intensity,"CTGF [1]; SH-SY5Y cells, replicate 3",0.0465
same,DAB chromogenic imaging intensity,"CTGF [1]; U87MG cells, replicate 1",0.1444
same,DAB chromogenic imaging intensity,"CTGF [1]; U87MG cells, replicate 2",0.1042
same,DAB chromogenic imaging intensity,"CTGF [1]; U87MG cells, replicate 3",0.1075
same,DAB chromogenic imaging intensity,"CTGF [2]; 3-month-old APP/PS1 mouse brain section, section 1",0.198
same,DAB chromogenic imaging intensity,"CTGF [2]; 3-month-old APP/PS1 mouse brain section, section 2",0.151
same,DAB chromogenic imaging intensity,"CTGF [2]; 3-month-old APP/PS1 mouse brain section, section 3",0.127
same,DAB chromogenic imaging intensity,"CTGF [2]; 9-month-old APP/PS1 mouse brain section, section 1",0.282
same,DAB chromogenic imaging intensity,"CTGF [2]; 9-month-old APP/PS1 mouse brain section, section 2",0.35
same,DAB chromogenic imaging intensity,"CTGF [2]; 9-month-old APP/PS1 mouse brain section, section 3",0.237
same,DAB chromogenic imaging intensity,"CTGF [2]; WT mouse brain section, Image Pro Plus, section 1",0.03
same,DAB chromogenic imaging intensity,"CTGF [2]; WT mouse brain section, Image Pro Plus, section 2",0.061
same,DAB chromogenic imaging intensity,"CTGF [2]; WT mouse brain section, Image Pro Plus, section 3",0.019
same,abnormalities in blood parameters and major organs,[3],did not induce any abnormalities in blood parameters and major organs
same,fluorescence intensity change on storage,[4],decreased only slightly; also recorded: decreased only
